How the values were obtained:
[1] = αVβ3 cell surface expression, flow cytometry; details: glycan lost; control: wild-type αV with β3
[2] = αIIbβ3 cell surface expression, flow cytometry; details: glycan lost; control: wild-type β3 with αIIb
[3] = eptifibatide-induced mAb binding, flow cytometry; details: glycan lost; control: wild-type β3 with αIIb
[4] = surface expression by mAbs 10E5, AP2, AP3, flow cytometry; details: glycan lost; control: wild-type αIIbβ3

B1: integrin αV subunit: αV-N950Q (protein)
parent chain: MAFPPRRRLRLGPRGLPLLLSGLLLPLCRAFNLDVDSPAEYSGPEGSYFGFAVDFFVPSASSRMFLLVGAPKANTTQPGIVEGGQVLKCDWSSTRRCQPIEFDATGNRDYAKDDPLEFKSHQWFGASVRSKQDKILACAPLYHWRTEMKQEREPVGTCFLQDGTKTVEYAPCRSQDIDADGQGFCQGGFSIDFTKADRVLLGGPGSFYWQGQLISDQVAEIVSKYDPNVYSIKYNNQLATRTAQAIFDDSYLGYSVAVGDFNGDGIDDFVSGVPRAARTLGMVYIYDGKNMSSLYNFTGEQMAAYFGFSVAATDINGDDYADVFIGAPLFMDRGSDGKLQEVGQVSVSLQRASGDFQTTKLNGFEVFARFGSAIAPLGDLDQDGFNDIAIAAPYGGEDKKGIVYIFNGRSTGLNAVPSQILEGQWAARSMPPSFGYSMKGATDIDKNGYPDLIVGAFGVDRAILYRARPVITVNAGLEVYPSILNQDNKTCSLPGTALKVSCFNVRFCLKADGKGVLPRKLNFQVELLLDKLKQKGAIRRALFLYSRSPSHSKNMTISRGGLMQCEELIAYLRDESEFRDKLTPITIFMEYRLDYRTAADTTGLQPILNQFTPANISRQAHILLDCGEDNVCKPKLEVSVDSDQKKIYIGDDNPLTLIVKAQNQGEGAYEAELIVSIPLQADFIGVVRNNEALARLSCAFKTENQTRQVVCDLGNPMKAGTQLLAGLRFSVHQQSEMDTSVKFDLQIQSSNLFDKVSPVVSHKVDLAVLAAVEIRGVSSPDHVFLPIPNWEHKENPETEEDVGPVVQHIYELRNNGPSSFSKAMLHLQWPYKYNNNTLLYILHYDIDGPMNCTSDMEINPLRIKISSLQTTEKNDTVAGQGERDHLITKRDLALSEGDIHTLGCGVAQCLKIVCQVGRLDRGKSAILYVKSLLWTETFMNKENQNHSYSLKSSASFNVIEFPYKNLPIEDITNSTLVTTNVTWGIQPAPMPVPVWVIILAVLAGLLLLAVLVFVMYRMGFFKRVRPPQEEQEREQLQPHENGEGNSET
expression_or_secretion [1]: decreases

B2: integrin αV subunit: αV-N458Q (protein)
parent chain: B1 parent chain
expression_or_secretion [1]: no change

B3: integrin αV subunit: αV-N943Q (protein)
parent chain: B1 parent chain
expression_or_secretion [1]: decreases

B4: integrin β3 subunit: β3-N320Q-N559Q (protein)
parent chain: MRARPRPRPLWATVLALGALAGVGVGGPNICTTRGVSSCQQCLAVSPMCAWCSDEALPLGSPRCDLKENLLKDNCAPESIEFPVSEARVLEDRPLSDKGSGDSSQVTQVSPQRIALRLRPDDSKNFSIQVRQVEDYPVDIYYLMDLSYSMKDDLWSIQNLGTKLATQMRKLTSNLRIGFGAFVDKPVSPYMYISPPEALENPCYDMKTTCLPMFGYKHVLTLTDQVTRFNEEVKKQSVSRNRDAPEGGFDAIMQATVCDEKIGWRNDASHLLVFTTDAKTHIALDGRLAGIVQPNDGQCHVGSDNHYSASTTMDYPSLGLMTEKLSQKNINLIFAVTENVVNLYQNYSELIPGTTVGVLSMDSSNVLQLIVDAYGKIRSKVELEVRDLPEELSLSFNATCLNNEVIPGLKSCMGLKIGDTVSFSIEAKVRGCPQEKEKSFTIKPVGFKDSLIVQVTFDCDCACQAQAEPNSHRCNNGNGTFECGVCRCGPGWLGSQCECSEEDYRPSQQDECSPREGQPVCSQRGECLCGQCVCHSSDFGKITGKYCECDDFSCVRYKGEMCSGHGQCSCGDCLCDSDWTGYYCNCTTRTDTCMSSNGLLCSGRGKCECGSCVCIQPGSYGDTCEKCPTCPDACTFKKECVECKKFDRGALHDENTCNRYCRDEIESVKELKDTGKDAVNCTYKNEDDCVVRFQYYEDSSGKSILYVVEEPECPKGPDILVVLLSVMGAILLIGLAALLIWKLLITIHDRKEFAKFEEERARAKWDTANNPLYKEATSTFTNITYRGT
expression_or_secretion [2]: decreases

B5: integrin β3 subunit: β3-N559Q (protein)
parent chain: B4 parent chain
structure_or_conformation [3]: decreases
expression_or_secretion [4]: no change

B6: integrin β3 subunit: β3-N320R (protein)
parent chain: B4 parent chain
structure_or_conformation [3]: decreases
expression_or_secretion [4]: no change

B7: integrin β3 subunit: β3-N320S (protein)
parent chain: B4 parent chain
expression_or_secretion [2]: decreases
